The values below come from patent publication US20240383990A1 (DIAGONAL THERAPEUTICS, published 2024).

Like-named read-outs stand apart in the source and are kept apart here.

Common to all, as to assay: cell-based or functional assay
Experiment [1] addresses T1, IL-18 receptor (IL-18Rα and IL-18Rβ) on HEK-Blue IL-18 cells (UniProt Q13478 19-541; O95256 20-599, limits assumed).
T1 sequence (looked up) 1: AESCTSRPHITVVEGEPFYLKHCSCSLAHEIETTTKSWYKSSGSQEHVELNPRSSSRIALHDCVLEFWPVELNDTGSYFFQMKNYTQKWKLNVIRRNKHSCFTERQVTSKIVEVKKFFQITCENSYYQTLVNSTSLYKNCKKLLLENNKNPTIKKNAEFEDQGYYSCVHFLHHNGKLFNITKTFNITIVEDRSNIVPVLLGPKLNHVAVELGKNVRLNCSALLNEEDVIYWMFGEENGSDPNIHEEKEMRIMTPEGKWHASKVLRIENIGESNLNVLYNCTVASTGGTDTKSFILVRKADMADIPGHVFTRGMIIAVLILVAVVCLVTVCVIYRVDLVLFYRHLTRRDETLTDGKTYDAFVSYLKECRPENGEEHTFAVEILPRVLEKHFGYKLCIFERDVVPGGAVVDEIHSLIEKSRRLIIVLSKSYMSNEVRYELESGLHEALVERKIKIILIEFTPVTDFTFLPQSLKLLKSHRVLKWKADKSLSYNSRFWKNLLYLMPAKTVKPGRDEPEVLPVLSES
T1 sequence (looked up) 2: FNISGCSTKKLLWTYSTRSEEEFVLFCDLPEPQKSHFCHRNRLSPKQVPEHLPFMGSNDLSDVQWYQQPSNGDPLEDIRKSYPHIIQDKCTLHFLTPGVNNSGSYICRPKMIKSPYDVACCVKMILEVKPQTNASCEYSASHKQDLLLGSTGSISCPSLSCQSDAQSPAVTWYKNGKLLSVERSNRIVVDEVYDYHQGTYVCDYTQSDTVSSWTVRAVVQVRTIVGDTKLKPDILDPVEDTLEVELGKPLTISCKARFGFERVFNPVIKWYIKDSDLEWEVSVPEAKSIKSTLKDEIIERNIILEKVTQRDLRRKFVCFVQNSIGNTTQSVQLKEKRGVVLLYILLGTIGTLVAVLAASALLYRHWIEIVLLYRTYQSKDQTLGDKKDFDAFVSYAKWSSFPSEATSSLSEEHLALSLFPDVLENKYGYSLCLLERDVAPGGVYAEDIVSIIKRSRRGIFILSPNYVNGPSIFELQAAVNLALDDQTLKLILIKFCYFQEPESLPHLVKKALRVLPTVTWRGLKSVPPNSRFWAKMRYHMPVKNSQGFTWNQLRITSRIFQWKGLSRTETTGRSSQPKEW

For experiment [2], the target named is T2, ALK1 / BMPRII receptor pair (BMPR Type I receptor ALK1 and BMPR Type II receptor BMPRII) on cells (UniProt P37023 22-503; Q13873 27-1038, limits assumed).
T2 sequence (P37023 22-503 limits assumed, chain 1 of 2): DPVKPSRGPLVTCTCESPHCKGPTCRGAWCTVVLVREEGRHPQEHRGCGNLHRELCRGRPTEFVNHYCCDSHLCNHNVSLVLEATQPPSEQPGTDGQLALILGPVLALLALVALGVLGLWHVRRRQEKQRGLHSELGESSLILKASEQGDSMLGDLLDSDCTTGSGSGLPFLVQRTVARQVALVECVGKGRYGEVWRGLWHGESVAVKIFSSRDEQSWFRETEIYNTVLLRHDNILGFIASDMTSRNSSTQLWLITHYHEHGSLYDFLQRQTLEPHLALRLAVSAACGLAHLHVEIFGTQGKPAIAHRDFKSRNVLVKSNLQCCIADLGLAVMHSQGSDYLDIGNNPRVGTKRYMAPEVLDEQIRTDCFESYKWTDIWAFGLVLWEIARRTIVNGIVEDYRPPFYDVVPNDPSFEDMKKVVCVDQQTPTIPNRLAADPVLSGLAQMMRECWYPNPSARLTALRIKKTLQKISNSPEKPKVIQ
T2 sequence (Q13873 27-1038 limits assumed, chain 2 of 2): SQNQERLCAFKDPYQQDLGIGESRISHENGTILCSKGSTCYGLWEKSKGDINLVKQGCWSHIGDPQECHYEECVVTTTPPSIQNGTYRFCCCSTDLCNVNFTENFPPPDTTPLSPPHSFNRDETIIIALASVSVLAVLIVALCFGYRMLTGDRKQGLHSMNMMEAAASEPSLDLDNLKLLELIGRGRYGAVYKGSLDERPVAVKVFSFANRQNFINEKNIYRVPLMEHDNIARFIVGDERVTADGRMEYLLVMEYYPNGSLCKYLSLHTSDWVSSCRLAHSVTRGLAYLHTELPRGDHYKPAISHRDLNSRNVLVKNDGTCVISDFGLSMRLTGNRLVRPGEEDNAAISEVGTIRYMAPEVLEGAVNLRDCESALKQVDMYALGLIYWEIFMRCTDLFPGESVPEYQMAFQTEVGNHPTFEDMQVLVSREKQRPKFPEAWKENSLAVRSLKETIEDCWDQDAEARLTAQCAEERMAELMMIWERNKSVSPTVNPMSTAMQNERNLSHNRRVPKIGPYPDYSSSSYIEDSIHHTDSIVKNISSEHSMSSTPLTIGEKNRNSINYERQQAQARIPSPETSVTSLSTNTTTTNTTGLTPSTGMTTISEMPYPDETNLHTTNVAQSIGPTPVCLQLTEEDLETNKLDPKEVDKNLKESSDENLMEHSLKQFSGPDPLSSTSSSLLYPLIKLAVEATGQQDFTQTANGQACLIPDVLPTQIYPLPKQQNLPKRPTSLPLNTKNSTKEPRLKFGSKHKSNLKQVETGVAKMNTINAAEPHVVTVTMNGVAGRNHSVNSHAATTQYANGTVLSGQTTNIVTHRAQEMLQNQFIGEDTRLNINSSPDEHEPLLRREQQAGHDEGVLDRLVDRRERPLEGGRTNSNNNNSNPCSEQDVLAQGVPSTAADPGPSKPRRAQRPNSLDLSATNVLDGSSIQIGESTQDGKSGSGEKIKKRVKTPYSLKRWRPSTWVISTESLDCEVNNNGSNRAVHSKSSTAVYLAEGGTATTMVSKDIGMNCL
For experiment [3], the target named is T2, ALK1 / BMPRII receptor pair (BMPR Type …). This is another data set of the same source.
Experiment [4] has the same target. This is another data set of the same source.
Experiment [5] addresses T1, IL-18 receptor (IL-18Rα and IL-18Rβ) on …. This is another data set of the same source.

B1: DGL211 (bispecific antibody)
chain 1: QVQLVESGGGLVQAGGSLRLSCAASGRTFSKHAMGWFRQAPGKEREFVAAIDWSGGSTYYADSVKGRFTISRDNAKNTVYLQMDSLKPEDTAVYYCAADSYTDYAQLWLPELESEYDYWGQGTLVTVSSEKSYGPPCPPCPAPEAAGAPSVFLFPPKPKDTLMISRTPEVTCVVVDVSHEDPEVKFNWYVDGVEVHNAKTKPREEQYNSTYRVVSVLTVLHQDWLNGKEYKCKVSNKALPAPIEKTISKAKGQPREPQVCTLPPSRDELTKNQVSLSCAVKGFYPSDIAVEWESNGQPENNYKTTPPVLDSDGSFFLVSKLTVDKSRWQQGNVFSCSVMHEALHNHYTQKSLSLSPGWSHPQFEK
chain 2: QLQLVESGGGLVQAGGSLRLSCAASRSITFSHNVMGWYRQAPGKQRELVASIGSGGSTNYVDSVKGRATISRDNAKKTVYLQMNSLKPEDTAVYYCGVVVGVYRGSLGQGTLVTVSSEKSYGPPCPPCPAPEAAGAPSVFLFPPKPKDTLMISRTPEVTCVVVDVSHEDPEVKFNWYVDGVEVHNAKTKPREEQYNSTYRVVSVLTVLHQDWLNGKEYKCKVSNKALPAPIEKTISKAKGQPREPQVYTLPPCRDELTKNQVSLWCLVKGFYPSDIAVEWESNGQPENNYKTTPPVLDSDGSFFLYSKLTVDKSRWQQGNVFSCSVMHEALHNHYTQKSLSLSPGEPEA
For the molecule B1, the “HEK-Blue assay, % human IL-18” value in experiment [1] was 50 % of human IL18 activity.

B2: DGL210 (bispecific antibody)
chain 1: QVQLVESGGGLVQAGGSLRLSCAASGRTFSKHAMGWFRQAPGKEREFVAAIDWSGGSTYYADSVKGRFTISRDNAKNTVYLQMDSLKPEDTAVYYCAADSYTDYAQLWLPELESEYDYWGQGTLVTVSSGGGGSGGGGSGGGGSGGGGSCPPCPAPEAAGAPSVFLFPPKPKDTLMISRTPEVTCVVVDVSHEDPEVKFNWYVDGVEVHNAKTKPREEQYNSTYRVVSVLTVLHQDWLNGKEYKCKVSNKALPAPIEKTISKAKGQPREPQVCTLPPSRDELTKNQVSLSCAVKGFYPSDIAVEWESNGQPENNYKTTPPVLDSDGSFFLVSKLTVDKSRWQQGNVFSCSVMHEALHNHYTQKSLSLSPGWSHPQFEK
chain 2: QLQLVESGGGLVQAGGSLRLSCAASRSITFSHNVMGWYRQAPGKQRELVASIGSGGSTNYVDSVKGRATISRDNAKKTVYLQMNSLKPEDTAVYYCGVVVGVYRGSLGQGTLVTVSSGGGGSGGGGSGGGGSGGGGSCPPCPAPEAAGAPSVFLFPPKPKDTLMISRTPEVTCVVVDVSHEDPEVKFNWYVDGVEVHNAKTKPREEQYNSTYRVVSVLTVLHQDWLNGKEYKCKVSNKALPAPIEKTISKAKGQPREPQVYTLPPCRDELTKNQVSLWCLVKGFYPSDIAVEWESNGQPENNYKTTPPVLDSDGSFFLYSKLTVDKSRWQQGNVFSCSVMHEALHNHYTQKSLSLSPGEPEA
In the case of B2, in experiment [1], the “HEK-Blue assay, % human IL-18” value was 34 % of human IL18 activity.

B3: DGL288 (bispecific antibody)
chain: EVQLLESGGGLVQPGGSLRLSCAASGFTFSDYYMTWIRQAPGKGLEWVSSISGGSTYYADSRKGRFTISRDNSENTLYLQMNSLRAEDTAVYYCARDFGVAGWFGQYGMDVWGQGTLVTVSSGGGGSGGGGSGGGGSQSVLTQPPSASGTPGQRVTISCTGSSSNIGAGYDVHWYQQLPGTAPKLLIYRSNQRPSGVPDRFSGSKSGTSASLAISGLRSEDEADYYCSSYAGNYNLVFGGGTKLTVLDKGPSVFPLAPEPKSSEVQLLESGGGLVQPGGSLRLSCAASGFTFSSYAMSWVRQAPGKGLEWVANINQDGSEKNYVDSMRGRFTISRDNSKNTLYLQMNSLRAEDTAVYYCAREFDYWGQGTLVTVTSSGGGGSGGGGSGGGGSQSVLAQPPSASGTPGQRVTISCSGSSSNIGSNYVYWYQQLPGTAPKLLIYGNNKRPSGVPDRFSGSKSGTSASLAISGLRSEDEADYYCAAWDDSLNGRVFGGGTKLTVLDKTHTCPPCPAPEAAGAPSVFLFPPKPKDTLMISRTPEVTCVVVDVSHEDPEVKFNWYVDGVEVHNAKTKPREEQYNSTYRVVSVLTVLHQDWLNGKEYKCKVSNKALPAPIEKTISKAKGQPREPQVYTLPPSRDELTKNQVSLTCLVKGFYPSDIAVEWESNGQPENNYKTTPPVLDSDGSFFLYSKLTVDKSRWQQGNVFSCSVMHEALHNHYTQKSLSLSPG
Consider B3, for which, in experiment [2], the “Agonist activity, % Emax BMP9” value worked out at 76 % Emax BMP9; the “Agonist activity, EC50” value was 70 pM; the “Agonist activity, EMAX (RLU)” value turned out to be 2e+06 RLU. For the same molecule, in experiment [3], the “Agonist activity, % Emax BMP9” value is 76 % Emax BMP9; the “Agonist activity, EC50” value came to 70 pM; the “Agonist activity, EMAX (RLU)” value was determined as 2e+06 RLU. Moreover, in experiment [4], the “pSMAD1 ELISA in HUVEC, RLU 15 minutes, at 0 nM (baseline)” value was 4.5 RLU; the “pSMAD1 ELISA in HUVEC, RLU 15 minutes, at 0.4 nM” value came out at 4.9 RLU; the “pSMAD1 ELISA in HUVEC, RLU 15 minutes, at 2 nM” value is 6.5 RLU; the “pSMAD1 ELISA in HUVEC, RLU 15 minutes, at 10 nM” value came to 6.7 RLU. In experiment [4], the “pSMAD1 ELISA in HUVEC, RLU 60 minutes, at 0 nM (baseline)” value was 4.5 RLU; the “pSMAD1 ELISA in HUVEC, RLU 60 minutes, at 0.4 nM” value was found to be 35 RLU; the “pSMAD1 ELISA in HUVEC, RLU 60 minutes, at 2 nM” value amounted to 26.9 RLU; the “pSMAD1 ELISA in HUVEC, RLU 60 minutes, at 10 nM” value was found to be 22.7 RLU.

B4: DGL213 (bispecific antibody)
chain 1: QVQLVESGGGLVQAGGSLRLSCAASGRTFSKHAMGWFRQAPGKEREFVAAIDWSGGSTYYADSVKGRFTISRDNAKNTVYLQMDSLKPEDTAVYYCAADSYTDYAQLWLPELESEYDYWGQGTLVTVSSDKTHTCPPCPAPEAAGAPSVFLFPPKPKDTLMISRTPEVTCVVVDVSHEDPEVKFNWYVDGVEVHNAKTKPREEQYNSTYRVVSVLTVLHQDWLNGKEYKCKVSNKALPAPIEKTISKAKGQPREPQVCTLPPSRDELTKNQVSLSCAVKGFYPSDIAVEWESNGQPENNYKTTPPVLDSDGSFFLVSKLTVDKSRWQQGNVFSCSVMHEALHNHYTQKSLSLSPGWSHPQFEK
chain 2: QLQLVESGGGLVQAGGSLRLSCAASRSITFSHNVMGWYRQAPGKQRELVASIGSGGSTNYVDSVKGRATISRDNAKKTVYLQMNSLKPEDTAVYYCGVVVGVYRGSLGQGTLVTVSSCPPCPAPEAAGAPSVFLFPPKPKDTLMISRTPEVTCVVVDVSHEDPEVKFNWYVDGVEVHNAKTKPREEQYNSTYRVVSVLTVLHQDWLNGKEYKCKVSNKALPAPIEKTISKAKGQPREPQVYTLPPCRDELTKNQVSLWCLVKGFYPSDIAVEWESNGQPENNYKTTPPVLDSDGSFFLYSKLTVDKSRWQQGNVFSCSVMHEALHNHYTQKSLSLSPGEPEA
B4: in experiment [5], the “HEK-Blue assay, % human IL18” value amounted to 42 % human IL18.

B5: DGL214 (bispecific antibody)
chain 1: B4 chain 1
chain 2: not shown
In the case of B5, in experiment [5], the “HEK-Blue assay, % human IL18” value is 31 % human IL18.

B6: DGL215 (bispecific antibody)
chain 1: B4 chain 1
chain 2: QLQLVESGGGLVQAGGSLRLSCAASRSITFSHNVMGWYRQAPGKQRELVASIGSGGSTNYVDSVKGRATISRDNAKKTVYLQMNSLKPEDTAVYYCGVVVGVYRGSLGQGTLVTVSSPLAPCPPCPAPEAAGAPSVFLFPPKPKDTLMISRTPEVTCVVVDVSHEDPEVKFNWYVDGVEVHNAKTKPREEQYNSTYRVVSVLTVLHQDWLNGKEYKCKVSNKALPAPIEKTISKAKGQPREPQVYTLPPCRDELTKNQVSLWCLVKGFYPSDIAVEWESNGQPENNYKTTPPVLDSDGSFFLYSKLTVDKSRWQQGNVFSCSVMHEALHNHYTQKSLSLSPGEPEA
Turning to B6, the “HEK-Blue assay, % human IL18” value in experiment [5] was 40 % human IL18.

B7: DGL212 (bispecific antibody)
chain 1: B4 chain 1
chain 2: not shown
B7: in experiment [1], the “HEK-Blue assay, % human IL-18” value is 41 % of human IL18 activity.

B8: DGL208 (bispecific antibody)
chain 1: QVQLVESGGGLVQAGGSLRLSCAASGRTFSKHAMGWFRQAPGKEREFVAAIDWSGGSTYYADSVKGRFTISRDNAKNTVYLQMDSLKPEDTAVYYCAADSYTDYAQLWLPELESEYDYWGQGTLVTVSSPLAPDKTHTCPPCPAPEAAGAPSVFLFPPKPKDTLMISRTPEVTCVVVDVSHEDPEVKFNWYVDGVEVHNAKTKPREEQYNSTYRVVSVLTVLHQDWLNGKEYKCKVSNKALPAPIEKTISKAKGQPREPQVCTLPPSRDELTKNQVSLSCAVKGFYPSDIAVEWESNGQPENNYKTTPPVLDSDGSFFLVSKLTVDKSRWQQGNVFSCSVMHEALHNHYTQKSLSLSPGWSHPQFEK
chain 2: not shown
As to B8, in experiment [1], the “HEK-Blue assay, % human IL-18” value is 44 % of human IL18 activity.
